Stoichiometry N and Kd data for one molecule are collected here from publication PMC3227427.

The target of assay [1] is T1, Pyrococcus furiosus (Pfu) RNase P protein RPP30 (Pyrococcus furiosus).
T1 sequence (Q8TZS0 1-214, looked up): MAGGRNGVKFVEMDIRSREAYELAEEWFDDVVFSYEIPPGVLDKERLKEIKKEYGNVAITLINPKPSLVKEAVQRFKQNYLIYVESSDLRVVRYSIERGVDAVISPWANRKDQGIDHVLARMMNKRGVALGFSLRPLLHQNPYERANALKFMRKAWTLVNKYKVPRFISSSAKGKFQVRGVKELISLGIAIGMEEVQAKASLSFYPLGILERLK
In words: ITC; Pop5 (148 uM) titrated into RPP30 (14.8 uM); 55°C; no salt or 150 mM NaCl; smaller injections, higher Wiseman c value; two-site model.

Assay [2] has the same target. In words: ITC; Pop5 (87.2 uM) titrated into RPP30 (9.89 uM); 55°C; 10 mM sodium acetate pH 5, no salt; one-site model; apparent.
For assay [3] the target is unchanged. In words: ITC; Pop5 (87.2 uM) titrated into RPP30 (4.95 uM); 55°C; 10 mM sodium acetate pH 5 with 130 mM KCl; one-site model; apparent. A general note: Isothermal titration calorimetry measures the heat released or taken up as one component is titrated into another.

B1: Pyrococcus furiosus (Pfu) RNase P protein Pop5, Cys72Ser variant (natural protein)
chain: MSERPKTLPPTLRDKKRYIAFKVISENQFNKDEIKEAIWNACLRTLGELGTAKAKPWLIKFDETTQTGIIRSDRNHVYDVIFSLTLVSDINGNKAIIKVLGVSGTIKRLKRKFLSQFGWR
On to B1, for which the stoichiometry N in assay [1], in assay [2] and in assay [3] was 1 each time. Also, the Kd came out at 124 nM in assay [2] and 3.5 nM in assay [3].
